Results on one molecule are retold here after CN111393528A (UNIV CHINA PHARMA, dated 2020).

In this assay the target is T1, FRα重组蛋白 (叶酸受体α, folate receptor α recombinant protein) (UniProt P15328 25-233, limits assumed).
T1 construct: Recombinant protein used for panning and ELISA (coated) and, after biotinylation (biotin:protein 20:1), on streptavidin sensors for BLI
In words: BLI (ForteBio Octet), biotinylated FRα on streptavidin sensor, scFv in solution. On the technique in general: Biolayer interferometry detects binding as a change in optical thickness at a sensor tip.

T1 sequence (P15328 25-233 limits assumed): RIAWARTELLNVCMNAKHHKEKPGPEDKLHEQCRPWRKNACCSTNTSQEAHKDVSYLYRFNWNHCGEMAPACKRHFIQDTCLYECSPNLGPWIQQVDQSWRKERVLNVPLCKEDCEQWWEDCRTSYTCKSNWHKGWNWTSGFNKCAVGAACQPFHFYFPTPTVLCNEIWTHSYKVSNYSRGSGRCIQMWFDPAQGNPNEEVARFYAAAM

B1: FR ScFv (靶向叶酸受体α的单链抗体) (scFv)
scFv: QAQLLESGGGLVQPGGSLRLSCAASGFTFSSYAMSWVRQAPGKGLEWVSAISGSGGSTYYADSVEGRFTISRDNSKNTLYLQMNSLRAEDTAVYYCARRAVGRGWRFWGQGTMVTVSSGGGGSGGGGSGGGGSDIVLTQSPSASGTPGQRVTISCSGSSSNIGSNYVYWYQQLPGTAPKLLIYRNNQRPSGVSDRFSGSKSGTSASLAISGLRSEDEADYYCAAWDDSLSARVFGGGTKVDIKR
notes: Soluble scFv expressed in E. coli BL21 from pET22b (BamH I/Hind III), purified on a nickel column; about 28.32 kDa; Vector-derived residues at the N-terminus (pelB leader, cloning site) are not described; also called 叶酸受体α单链抗体; FRα单链抗体; not shown: C-terminal His tag from the pET22b vector (fused downstream of the gene)
What is called Kd is the equilibrium constant for the complex coming apart. In general, koff refers to the first-order rate constant of dissociation. What is called kon is the second-order rate constant of association. With B1, the dissociation constant Kd is 41.3 nM, the dissociation rate constant (koff) is 0.00127 s⁻¹ and the kon came out at 30900 M⁻¹ s⁻¹.
